Reference: patent US20130130985A1 (published 2013)
Blank lines part the entries; values can stand above or below the binder they belong to. Bridges are numbered along the chain shown (N, C = ends). Where no end group is shown, it is not given here. [ ]: non-standard residue; d: D form. Sec = N[C@@H](C[SeH])C(=O)O

Key:
[1] = target: T1, human vasopressin V1a receptor (human, UniProt P37288 1-418); assay: cell-based or functional assay
[2] = target: T1, human vasopressin V1a receptor; assay: cell-based or functional assay; remark: listed apart in the source
human oxytocin receptor [3] = target: T2, human oxytocin receptor (human, UniProt P30559 1-389); assay: cell-based or functional assay
T2 sequence (looked up): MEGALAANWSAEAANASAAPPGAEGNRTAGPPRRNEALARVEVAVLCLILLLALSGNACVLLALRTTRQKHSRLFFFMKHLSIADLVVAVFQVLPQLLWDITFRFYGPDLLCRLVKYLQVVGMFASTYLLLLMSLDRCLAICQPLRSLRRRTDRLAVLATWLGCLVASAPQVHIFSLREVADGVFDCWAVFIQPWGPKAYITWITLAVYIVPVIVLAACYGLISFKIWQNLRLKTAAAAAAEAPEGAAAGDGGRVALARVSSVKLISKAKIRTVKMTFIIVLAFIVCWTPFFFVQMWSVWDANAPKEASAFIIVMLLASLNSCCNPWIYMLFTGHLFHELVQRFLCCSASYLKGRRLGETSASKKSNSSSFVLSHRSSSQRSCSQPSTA

human oxytocin receptor [4] = target: T2, human oxytocin receptor; assay: cell-based or functional assay; remark: listed apart in the source
[5] = target: T3, human vasopressin V1b receptor (human, UniProt P47901 1-424); assay: cell-based or functional assay
T3 sequence (looked up): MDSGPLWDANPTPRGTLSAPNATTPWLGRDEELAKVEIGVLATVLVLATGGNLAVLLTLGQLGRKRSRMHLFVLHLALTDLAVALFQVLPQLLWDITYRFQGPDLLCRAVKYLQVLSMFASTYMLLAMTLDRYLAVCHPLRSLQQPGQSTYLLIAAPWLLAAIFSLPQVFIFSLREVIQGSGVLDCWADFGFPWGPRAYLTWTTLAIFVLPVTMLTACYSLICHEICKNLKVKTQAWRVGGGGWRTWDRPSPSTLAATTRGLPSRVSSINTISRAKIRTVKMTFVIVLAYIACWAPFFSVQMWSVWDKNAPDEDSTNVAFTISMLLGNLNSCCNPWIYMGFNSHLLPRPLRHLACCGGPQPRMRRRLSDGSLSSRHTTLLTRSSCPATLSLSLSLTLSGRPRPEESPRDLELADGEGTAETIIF

[6] = target: T3, human vasopressin V1b receptor; assay: cell-based or functional assay; remark: listed apart in the source
[7] = target: human vasopressin V2 receptor (human, UniProt P30518 1-371); assay: cell-based or functional assay
human oxytocin receptor [8] = target: T2, human oxytocin receptor; assay: radioligand displacement (3H-OT), SPA beads, COS-1 membranes

T1 sequence (P37288 whole entry): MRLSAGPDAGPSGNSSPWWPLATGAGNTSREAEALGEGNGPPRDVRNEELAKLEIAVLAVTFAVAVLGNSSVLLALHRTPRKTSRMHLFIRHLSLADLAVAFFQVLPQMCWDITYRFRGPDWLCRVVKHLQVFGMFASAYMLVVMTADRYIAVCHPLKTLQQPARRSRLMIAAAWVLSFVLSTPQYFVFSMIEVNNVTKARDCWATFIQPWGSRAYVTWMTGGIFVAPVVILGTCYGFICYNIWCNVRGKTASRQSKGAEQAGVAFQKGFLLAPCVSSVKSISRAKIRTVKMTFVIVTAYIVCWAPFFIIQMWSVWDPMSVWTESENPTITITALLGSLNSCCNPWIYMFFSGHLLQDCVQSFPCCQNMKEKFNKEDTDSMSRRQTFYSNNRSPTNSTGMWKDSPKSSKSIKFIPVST

Emax, IP-One HTRF assay [1]: 79% | Emax, FLIPR calcium assay [2]: 71%
Binder: CYIQNCPLX (C-terminal amide; Cys1 and Cys6 form the cyclic part (disulfide)) [Oxytocin]

Emax, IP-One HTRF assay (human oxytocin receptor [3]): 55% | Emax, IP-One HTRF assay [1]: 67% | Emax, FLIPR calcium assay (human oxytocin receptor [4]): 82% | Emax, FLIPR calcium assay [2]: 104% | Emax, FLIPR calcium assay [5]: 73%
Binder: CYIQN[Sec]PLG-NH2 (bridge 1-6; also: selenosulfide bond) [[C6U]-OT]

Emax, IP-One HTRF assay [1]: 77%
Binder: CYIQNCPLG-OH (disulfide 1-6) [[S-S]-OT-OH]

Continued, binder first:

Binder: [Sec]YIQNCPLG-NH2 (bridge 1-6 via selenosulfide) [[C1U]-OT]
Emax, IP-One HTRF assay (human oxytocin receptor [3]): 84% | Emax, IP-One HTRF assay [1]: 96% | Emax, FLIPR calcium assay (human oxytocin receptor [4]): 85% | Emax, FLIPR calcium assay [2]: 90% | Emax, FLIPR calcium assay [5]: 82%

B1: d[C1,6U]-OT-OH (peptide)
peptide: XYIQNXPLG
modifications: by its name: desaminoselenocysteine (3-selenopropanoic acid) at position 1, L-selenocysteine at position 6, diselenide bridge; free C-terminal carboxylic acid; structure is not given
Emax, IP-One HTRF assay (human oxytocin receptor [3]): 71% | Emax, IP-One HTRF assay [6]: 63% | Emax, FLIPR calcium assay (human oxytocin receptor [4]): 49% | EC50, FLIPR calcium assay [2]: > 100000 nM | Emax, FLIPR calcium assay [5]: 58% | Emax, cAMP accumulation assay [7]: 135%

B2: [C1,6U]-OT-OH (peptide)
peptide: XYIQNXPLG
modifications: L-selenocysteine at positions 1 and 6, diselenide bridge; free C-terminal carboxylic acid
notes: also called [Se-Se]-OT-OH
Emax, IP-One HTRF assay (human oxytocin receptor [3]): 60% | EC50, IP-One HTRF assay [1]: > 100000 nM | Emax, FLIPR calcium assay (human oxytocin receptor [4]): 38% | EC50, FLIPR calcium assay [2]: > 100000 nM | EC50, cAMP accumulation assay [7]: 495 nM | Emax, cAMP accumulation assay [7]: 114% | IC50 (human oxytocin receptor [8]): 1280 nM
